Read-outs that look alike come from different tables or passages of the source.
Experiments:
Assay in all cases: BLI
[1] = target: T1, biotinylated C-terminal αTSR domain of P. falciparum circumsporozoite protein (P. falciparum, UniProt Q7K740 310-375, biotinylated)
T1 chain: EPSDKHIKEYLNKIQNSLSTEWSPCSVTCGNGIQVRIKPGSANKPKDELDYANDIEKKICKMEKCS

[2] = target: T2, biotinylated SARS-CoV-2 fusion peptide (SARS-CoV-2, biotin on the N-terminus)
T2 peptide: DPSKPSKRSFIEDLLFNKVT

[3] = target: His6-tagged SARS-CoV-2 receptor-binding domain (SARS-CoV-2, UniProt P0DTC2 319-541)
[4] = target: His-tagged HIV Env MPER peptide (HIV)
[5] = target: T3, biotinylated influenza hemagglutinin (HA) from H1N1 A/California/07/2009 (influenza A virus H1N1 …)
[6] = target: HCV (isolate H77) E2 domain protein (hepatitis C virus (isolate H77))
[7] = target: T3, biotinylated influenza hemagglutinin …; remark: listed apart in the source

B1: Fab234 (WT) (Fab, V domains shown)
VH: EVQLVESGGGLVKPGGSLRLSCAASGFNFSTHIMNWVRQAPGKGLEWVSSISSSGTYIYYADSMKGRFTISRDNPKNSLYLQMNSLRAEDTAVYYCARARGFIQFHYYMDVWGKGTTVAVSS
VL: SYVLTQPPSVSVAPGKTARITCGGNNIGSKSVHWHQQRPGQAPVLVVYDDKIRPSGIPERFSGSNSGNTATLIISRVEAGDEADYYCQVWHSSSDPVVFGGGTKLTVL
For B1, which Kd [1] is on record?
The Kd was 0.2 nM.

B2: COV44-62 Fab (WT) (Fab, V domains shown)
VH: QMQLMQSGAEVKKPGASVTVSCKASGDTFSDYRIHWVRQAPGQGLEWMGRMNPKSGDTNFAQKFQGRVTMTRDMSINTAYMTLSGLTFDDTALYYCASLLIVGGFDPLDDFEVWGQGTMVTISS
VL: QSALTQPPSASGSPGQSVTISCSGTSSDVGGYNFVSWYQHHPGKAPKILIYEVTKRPSGVPDRFSGSKSGNTASLTVSGLQAEDEADYYCSSYGGTNNLLFGGGTKLTVL
With B2 as the binder, how does the Kd [2] read?
The Kd was 26 nM.

B3: GAR12 Fab (WT) (Fab, V domains shown)
VH: EVQLVQSGGGLVQPGGSLRLSCAASGFTFSSYAMSWVRQAPGKGLEWVLSISGSGGSTYYADSVKGRFTISIDNSKKTVYLQMNSLRAEDTAVYYCAKSGEQQLVQAEYFHHWGQGTLVTVSS
VL: DIQMTQSPSTLSASVGDRVTITCRASQSIGRWLAWYQQKPGKAPKLLIYDASSLESGVPSRFSGSGFGTEFTLTISSLQPDDFATYYCQQCDSLLTFGGGTKLEIK
With B3 as the binder, how does the Kd [3] read?
The Kd was 3.5 nM.

B4: GAR12 Fab VL D50K (Fab, V domains shown)
VH: EVQLVQSGGGLVQPGGSLRLSCAASGFTFSSYAMSWVRQAPGKGLEWVLSISGSGGSTYYADSVKGRFTISIDNSKKTVYLQMNSLRAEDTAVYYCAKSGEQQLVQAEYFHHWGQGTLVTVSS
VL: DIQMTQSPSTLSASVGDRVTITCRASQSIGRWLAWYQQKPGKAPKLLIYKASSLESGVPSRFSGSGFGTEFTLTISSLQPDDFATYYCQQCDSLLTFGGGTKLEIK
How did the Kd [3] turn out when B4 was run?
Its Kd is 153 nM.

B5: 4E10 Fab (WT) (Fab, V domains shown)
VH: QVQLVQSGAEVKRPGSSVTVSCKASGGSFSTYALSWVRQAPGRGLEWMGGVIPLLTITNYAPRFQGRITITADRSTSTAYLELNSLRPEDTAVYYCAREGTTGWGWLGKPIGAFAHWGQGTLVTVSS
VL: EIVLTQSPGTQSLSPGERATLSCRASQSVGNNKLAWYQQRPGQAPRLLIYGASSRPSGVADRFSGSGSGTDFTLTISRLEPEDFAVYYCQQYGQSLSTFGQGTKVEVK
With B5 as the binder, how does the Kd [4] read?
The Kd was 9.1 nM.

B6: 5J8 Fab (WT) (Fab, V domains shown)
VH: EVQLVESGPGLVKPSDILSLTCAVSGYSISSNYYWGWIRQPPGKGLEWIGSIYHSGSTYYKPSLESRLGISVDTSKNQFSLKLSFVSAADTAVYYCARHVRSGYPDTAYYFDKWGQGTLVTVSS
VL: SYVLTQPPSVSVAPGETARISCGGNNIGTKVLHWYQQTPGQAPVLVVYDDSDRPSGIPERFSGSNSGNTATLTISRVEVGDEADYYCQVWDISTDQAVFGGGTKLTVL
How did the Kd [5] turn out when B6 was run?
Its Kd is 4 nM.

B7: HC84.26.5D Fab (WT) (Fab, V domains shown)
VH: VQPVQSGAEVKKPGSSVKVSCEASGGTHSNYVITWVRQAPGQGLEWMGGFIPDFRTAMYAQGFQGRVTITADESTSLAYMELTNLRSEDTAVYYCARGPLSRGYYDYWGPGTLVTVSS
VL: YVLTQPPSVSVAPGQTASITCSGDKLGDKYVSWYQQRPGQSPVLVLYQDSKRPSGIPERFSGSNSGNTATLTISGTQAMDEADYYCQAWDSSALVFGGGTKLTVL
For B7, which Kd [6] is on record?
The Kd was 0.9 nM.

B8: 3E1 Fab (WT) (Fab, V domains shown)
VH: QVQLQESGPGLVKPSETLSLTCSVSGASISSYYWIWIRQPAGKGLEWIGRFYTSGSPNYNPSLRSRVTMSVDTSKNQFSLKLTSVTAADTAVYYCAREEHITFGGVIVRYWGQGTLVTVSP
VL: DIQMTQSPATLSASVGDRVSITCRASQSISSWLAWYQQKPGKAPKLLIYKASSLESGVPSRFSGSGSGSEFTLTISSLQPDDFAIYYCQQYNSYPWTFGQGTKVEIK
How did the Kd [7] turn out when B8 was run?
The Kd was 6.9 nM.

Source: publication PMC10636607 (2023)
